Where “and” joins values, the source holds several entries; their conditions need not be identical. Equal entries are not always repeated.

Assay [1] deals with feline CD28, surface expressed on CD28-pSI transfected COS-7 cells (feline). Put plainly: cell-cell adhesion assay; calcein-labelled CD80 COS-7 cells on CD28 COS-7 monolayer; microplate fluorimeter.
In assay [2] the target is feline CD80, surface expressed on feCD80/pSI transfected COS-7 cells (feline). In words: competitive cell-cell adhesion assay at 5x10^5 cells; huCTLA-4Ig pre-incubated with CD80 COS-7 cells, then added to CD28 COS-7 monolayer.

Take “feline CD80, surface expressed on feCD80/pSI transfected COS-7 cells (ligand)”: in assay [1], the fold fluorescence against wells with mock transfected adherent cells, at 1x10^6 cells is 5 fold.
With “huCTLA-4Ig fusion protein (from UniProt P16410 38-161) (Fc fusion)”, the fold residual fluorescence against wells inhibited with soluble CD80 (close to the mock transfected control) in assay [2] is 2 fold and 3 fold.

Values taken from patent publication EP1073741B1.
